A word on the Kd: it is the equilibrium constant for the complex coming apart.

Consider six molecules from publication PMC12583524 (Nature Communications, 2025).

The target of experiment [1] is recombinant CHIKV E1–E2 fusion protein (Chikungunya virus, sequence as …). Description: SPR. (In general: SPR reads the build-up and loss of mass on a sensor chip optically.)
Experiment [2] deals with T1, CHIKV VLP (strain 119067) (Chikungunya virus, strain 119067, UniProt A0A1I9WLN7). Briefly: cryo-EM structure.
Experiment [3] has as its target T1, CHIKV VLP (strain 119067). Description: dynamic light scattering.

B1: C34 Fab (papain digestion of the mAb) (Fab, V domains shown)
VH: EVQLVESGGGLVQPGRSLRLSCAASGFTFDDYAMHWVRQAPGKGLEWVSGISWNSGSIGYADSVKGRFTISRDNAKNSLYLQMNSLRAEDTALYYCAKDMGYSGNDDYYGMDVWGQGTTVTVSS
VL: DIQLTQSPSSLSASVGDRVTITCRASQRISSYLNWYQQKPGKAPKLLIYGAFSLQSGVPSRFSGSGSGTDFTLTISSLQPEDFATYYCQQSYRTLTRTFGQGTKVEIK
Take B1: the Kd in experiment [1] was under 1 nM.

B2: C34 Fab (recombinant, His-tag on the heavy chain) (Fab, V domains shown)
VH: EVQLVESGGGLVQPGRSLRLSCAASGFTFDDYAMHWVRQAPGKGLEWVSGISWNSGSIGYADSVKGRFTISRDNAKNSLYLQMNSLRAEDTALYYCAKDMGYSGNDDYYGMDVWGQGTTVTVSS
VL: DIQLTQSPSSLSASVGDRVTITCRASQRISSYLNWYQQKPGKAPKLLIYGAFSLQSGVPSRFSGSGSGTDFTLTISSLQPEDFATYYCQQSYRTLTRTFGQGTKVEIK
Consider B2, for which, in experiment [2], the binding result is on record as “binds”.

B3: C34 IgG (antibody, V domains shown)
VH: EVQLVESGGGLVQPGRSLRLSCAASGFTFDDYAMHWVRQAPGKGLEWVSGISWNSGSIGYADSVKGRFTISRDNAKNSLYLQMNSLRAEDTALYYCAKDMGYSGNDDYYGMDVWGQGTTVTVSS
VL: DIQLTQSPSSLSASVGDRVTITCRASQRISSYLNWYQQKPGKAPKLLIYGAFSLQSGVPSRFSGSGSGTDFTLTISSLQPEDFATYYCQQSYRTLTRTFGQGTKVEIK
In the case of B3, the binding result in experiment [3] is on record as “binds”.

B4: C37 Fab (papain digestion of the mAb) (Fab, V domains shown)
VH: QVQLQESGPGLVKPSETLSLTCTVSGGSIGSSSYYWGWIRQPPGKGLQWIGSFHYSGTTYYNPSLKSRVTISVDTSKNHFSLKLSSVTAADTAVYYCASRQNWNDGYFDYWGQGTLVTVSS
VL: DIQMTQSPATLSLSPGERATLFCRASQSVSSSLAWYQQKPGQAPRLLIYDASNRATGIPARFSGSGSGTDFTLTISSLEPEDFAVYYCQQRGNWPPITFGQGTRLDTK
As for B4, the Kd in experiment [1] was under 1 nM.

B5: C37 Fab (recombinant, His-tag on the heavy chain) (Fab, V domains shown)
VH: QVQLQESGPGLVKPSETLSLTCTVSGGSIGSSSYYWGWIRQPPGKGLQWIGSFHYSGTTYYNPSLKSRVTISVDTSKNHFSLKLSSVTAADTAVYYCASRQNWNDGYFDYWGQGTLVTVSS
VL: DIQMTQSPATLSLSPGERATLFCRASQSVSSSLAWYQQKPGQAPRLLIYDASNRATGIPARFSGSGSGTDFTLTISSLEPEDFAVYYCQQRGNWPPITFGQGTRLDTK
For B5, the binding result in experiment [2] is listed as “binds”.

B6: C37 IgG (antibody, V domains shown)
VH: QVQLQESGPGLVKPSETLSLTCTVSGGSIGSSSYYWGWIRQPPGKGLQWIGSFHYSGTTYYNPSLKSRVTISVDTSKNHFSLKLSSVTAADTAVYYCASRQNWNDGYFDYWGQGTLVTVSS
VL: DIQMTQSPATLSLSPGERATLFCRASQSVSSSLAWYQQKPGQAPRLLIYDASNRATGIPARFSGSGSGTDFTLTISSLEPEDFAVYYCQQRGNWPPITFGQGTRLDTK
As to B6, the binding result in experiment [3] is reported as “binds”.
